# Laboratory results: patent US20150148403A1 (ACADEMIA SINICA, published 2015)
# T1: Flag-tagged USP37 (human, UniProt Q86T82 1-979)
# T1 construct: Expressed in transfected HEK-293T cells and tested in lysate by co-immunoprecipitation; also called Flag-USP37; USP37 WT; not shown: 3xFLAG tag from the pCMV-3xFLAG vector
# T1 sequence: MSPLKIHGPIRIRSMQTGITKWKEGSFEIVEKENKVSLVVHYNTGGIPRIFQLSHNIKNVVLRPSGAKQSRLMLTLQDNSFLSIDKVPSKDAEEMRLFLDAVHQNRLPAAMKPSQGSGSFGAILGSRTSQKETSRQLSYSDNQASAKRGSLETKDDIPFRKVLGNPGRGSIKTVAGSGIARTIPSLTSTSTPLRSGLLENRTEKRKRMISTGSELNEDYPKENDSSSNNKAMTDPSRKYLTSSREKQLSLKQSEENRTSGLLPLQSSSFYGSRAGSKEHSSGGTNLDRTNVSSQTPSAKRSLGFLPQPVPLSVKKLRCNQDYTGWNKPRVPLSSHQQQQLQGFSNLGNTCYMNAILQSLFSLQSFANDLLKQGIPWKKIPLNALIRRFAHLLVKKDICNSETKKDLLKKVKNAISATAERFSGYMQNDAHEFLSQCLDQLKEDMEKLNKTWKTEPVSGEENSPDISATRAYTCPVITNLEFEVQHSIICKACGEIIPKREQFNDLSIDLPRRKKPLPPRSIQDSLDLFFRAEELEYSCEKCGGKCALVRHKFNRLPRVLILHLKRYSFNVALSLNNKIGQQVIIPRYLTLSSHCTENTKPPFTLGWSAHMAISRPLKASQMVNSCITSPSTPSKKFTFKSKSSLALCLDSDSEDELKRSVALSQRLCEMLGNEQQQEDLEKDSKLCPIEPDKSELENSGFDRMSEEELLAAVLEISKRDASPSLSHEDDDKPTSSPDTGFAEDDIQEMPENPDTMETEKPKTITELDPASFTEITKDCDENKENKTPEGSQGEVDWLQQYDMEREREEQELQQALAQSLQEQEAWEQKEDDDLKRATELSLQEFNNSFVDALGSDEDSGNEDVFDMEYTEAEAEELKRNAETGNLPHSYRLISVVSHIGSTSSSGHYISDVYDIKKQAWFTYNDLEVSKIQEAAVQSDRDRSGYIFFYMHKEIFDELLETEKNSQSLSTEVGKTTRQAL
# Key:
# Flag-tagged USP37 = biological target: T1, Flag-tagged USP37; experiment: co-immunoprecipitation from transfected HEK-293T cells
# [1] = biological target: poly-ubiquitinated PLZF/RARA immunoprecipitated from HEK-293T cells expressing Flag-tagged PLZF/RARA and Myc-tagged Ub
binding result (Flag-tagged USP37),Binder,in vitro deubiquitination of poly-ubiquitinated PLZF/RARA (immunoblot) [1]
no binding,"HA-tagged RARA (receptor, UniProt P10276 1-462, looked up, Expressed in transfected HEK-293T cells; not shown: HA tag) MASNSSSCPTPGGGHLNGYPVPPYAFFFPPMLGGLSPPGALTTLQHQLPVSGYSTPSPATIETQSSSSEEIVPSPPSPPPLPRIYKPCFVCQDKSSGYHYGVSACEGCKGFFRRSIQKNMVYTCHRDKNCIINKVTRNRCQYCRLQKCFEVGMSKESVRNDRNKKKKEVPKPECSESYTLTPEVGELIEKVRKAHQETFPALCQLGKYTTNNSSEQRVSLDIDLWDKFSELSTKCIIKTVEFAKQLPGFTTLTIADQITLLKAACLDILILRICTRYTPEQDTMTFSDGLTLNRTQMHNAGFGPLTDLVFAFANQLLPLEMDDAETGLLSAICLICGDRQDLEQPDRVDMLQEPLLEALKVYVRKRRPSRPHMFPKMLMKITDLRSISAKGAERVITLKMEIPGSMPPLIQEMLENSEGLDTLSGQPGGGGRDGGGLAPPPGSCSPSLSPSSNRSSPATHSP",–
–,MBP-fused USP37 recombinant protein (protein) MSPLKIHGPIRIRSMQTGITKWKEGSFEIVEKENKVSLVVHYNTGGIPRIFQLSHNIKNVVLRPSGAKQSRLMLTLQDNSFLSIDKVPSKDAEEMRLFLDAVHQNRLPAAMKPSQGSGSFGAILGSRTSQKETSRQLSYSDNQASAKRGSLETKDDIPFRKVLGNPGRGSIKTVAGSGIARTIPSLTSTSTPLRSGLLENRTEKRKRMISTGSELNEDYPKENDSSSNNKAMTDPSRKYLTSSREKQLSLKQSEENRTSGLLPLQSSSFYGSRAGSKEHSSGGTNLDRTNVSSQTPSAKRSLGFLPQPVPLSVKKLRCNQDYTGWNKPRVPLSSHQQQQLQGFSNLGNTCYMNAILQSLFSLQSFANDLLKQGIPWKKIPLNALIRRFAHLLVKKDICNSETKKDLLKKVKNAISATAERFSGYMQNDAHEFLSQCLDQLKEDMEKLNKTWKTEPVSGEENSPDISATRAYTCPVITNLEFEVQHSIICKACGEIIPKREQFNDLSIDLPRRKKPLPPRSIQDSLDLFFRAEELEYSCEKCGGKCALVRHKFNRLPRVLILHLKRYSFNVALSLNNKIGQQVIIPRYLTLSSHCTENTKPPFTLGWSAHMAISRPLKASQMVNSCITSPSTPSKKFTFKSKSSLALCLDSDSEDELKRSVALSQRLCEMLGNEQQQEDLEKDSKLCPIEPDKSELENSGFDRMSEEELLAAVLEISKRDASPSLSHEDDDKPTSSPDTGFAEDDIQEMPENPDTMETEKPKTITELDPASFTEITKDCDENKENKTPEGSQGEVDWLQQYDMEREREEQELQQALAQSLQEQEAWEQKEDDDLKRATELSLQEFNNSFVDALGSDEDSGNEDVFDMEYTEAEAEELKRNAETGNLPHSYRLISVVSHIGSTSSSGHYISDVYDIKKQAWFTYNDLEVSKIQEAAVQSDRDRSGYIFFYMHKEIFDELLETEKNSQSLSTEVGKTTRQAL,the recombinant USP37 WT but not CA mutant could deubiquitinate PLZF/RARA in vitro
–,recombinant USP37 CA mutant (USP37 C350A) (protein) MSPLKIHGPIRIRSMQTGITKWKEGSFEIVEKENKVSLVVHYNTGGIPRIFQLSHNIKNVVLRPSGAKQSRLMLTLQDNSFLSIDKVPSKDAEEMRLFLDAVHQNRLPAAMKPSQGSGSFGAILGSRTSQKETSRQLSYSDNQASAKRGSLETKDDIPFRKVLGNPGRGSIKTVAGSGIARTIPSLTSTSTPLRSGLLENRTEKRKRMISTGSELNEDYPKENDSSSNNKAMTDPSRKYLTSSREKQLSLKQSEENRTSGLLPLQSSSFYGSRAGSKEHSSGGTNLDRTNVSSQTPSAKRSLGFLPQPVPLSVKKLRCNQDYTGWNKPRVPLSSHQQQQLQGFSNLGNTAYMNAILQSLFSLQSFANDLLKQGIPWKKIPLNALIRRFAHLLVKKDICNSETKKDLLKKVKNAISATAERFSGYMQNDAHEFLSQCLDQLKEDMEKLNKTWKTEPVSGEENSPDISATRAYTCPVITNLEFEVQHSIICKACGEIIPKREQFNDLSIDLPRRKKPLPPRSIQDSLDLFFRAEELEYSCEKCGGKCALVRHKFNRLPRVLILHLKRYSFNVALSLNNKIGQQVIIPRYLTLSSHCTENTKPPFTLGWSAHMAISRPLKASQMVNSCITSPSTPSKKFTFKSKSSLALCLDSDSEDELKRSVALSQRLCEMLGNEQQQEDLEKDSKLCPIEPDKSELENSGFDRMSEEELLAAVLEISKRDASPSLSHEDDDKPTSSPDTGFAEDDIQEMPENPDTMETEKPKTITELDPASFTEITKDCDENKENKTPEGSQGEVDWLQQYDMEREREEQELQQALAQSLQEQEAWEQKEDDDLKRATELSLQEFNNSFVDALGSDEDSGNEDVFDMEYTEAEAEELKRNAETGNLPHSYRLISVVSHIGSTSSSGHYISDVYDIKKQAWFTYNDLEVSKIQEAAVQSDRDRSGYIFFYMHKEIFDELLETEKNSQSLSTEVGKTTRQAL,the recombinant USP37 WT but not CA mutant could deubiquitinate PLZF/RARA in vitro
